Patent publication US20070248613A1
Read-outs that look alike come from different tables or passages of the source.

Experiments:
[1] = target: D5 IgG
[2] = target: D5 IgG; remark: listed apart in the source
[3] = target: IQN17-2Pro; assay: SPR (Biacore)
[4] = target: IZN17 (HIV) (UniProt P04578); assay: SPR (Biacore)
[5] = target: IZN17-G572D (HIV) (UniProt P04578); assay: SPR (Biacore)
[6] = target: IZN17-L565M (HIV) (UniProt P04578); assay: SPR (Biacore)
[7] = target: IZN17-Q567R (HIV) (UniProt P04578); assay: SPR (Biacore)
[8] = target: gp120 of the HIV-1 HXB2 envelope (HIV-1 strain HXB2) (UniProt P04578); assay: cell-based or functional assay

Chain of D5 IgG (VH, as listed by the source, chain 1 of 2): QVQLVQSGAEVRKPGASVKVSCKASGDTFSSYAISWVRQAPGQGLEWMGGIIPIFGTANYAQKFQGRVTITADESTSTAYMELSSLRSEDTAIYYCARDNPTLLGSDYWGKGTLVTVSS
Chain of D5 IgG (VL, as listed by the source, chain 2 of 2): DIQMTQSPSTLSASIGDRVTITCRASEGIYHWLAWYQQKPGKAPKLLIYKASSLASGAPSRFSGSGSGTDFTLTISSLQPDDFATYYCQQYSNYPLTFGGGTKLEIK
Chain of D5 IgG (antibody) (VH): as the sequence (VH, as listed by the source, chain 1 of 2) above
Chain of D5 IgG (antibody) (VL): as the sequence (VL, as listed by the source, chain 2 of 2) above

Question: “IZN17-L565M (from UniProt P04578 565-581) (peptide)” was tested. Which IC50 (read off the curve) [1] did it give?
Answer: Its IC50 (read off the curve) is 10 nM.

Question: Which IC50 (read off the curve) [1] does the source give for “IZN17 (from UniProt P04578 565-581) (peptide)” here?
Answer: Its IC50 (read off the curve) is 7 nM.

Question: And the IC50 (read off the curve) [2]?
Answer: Its IC50 (read off the curve) is 2 nM.

Question: Which results are given for D5 IgG (antibody)?
Answer: Kd [3]: 240 nM; koff [3]: 0.0022 s⁻¹; kon [3]: 9000 M⁻¹ s⁻¹; Kd [4]: 0.1 nM; koff [4]: 0.00059 s⁻¹; kon [4]: 6.1e+06 M⁻¹ s⁻¹; Kd [5]: 550 nM; koff [5]: 0.003 s⁻¹; kon [5]: 5500 M⁻¹ s⁻¹; Kd [6]: 0.3 nM; koff [6]: 0.00089 s⁻¹; kon [6]: 3e+06 M⁻¹ s⁻¹; Kd [7]: 1.5 nM; koff [7]: 0.0012 s⁻¹; kon [7]: 800000 M⁻¹ s⁻¹

Question: With “IZN17-Q567R (from UniProt P04578 565-581) (peptide)” as the substance, how does the IC50 (read off the curve) [1] read?
Answer: The IC50 (read off the curve) was 10 nM.

Question: “IZN17 V570A (from UniProt P04578 565-581) (peptide)” was tested. Which IC50 (read off the curve) [2] did it give?
Answer: The IC50 (read off the curve) was 7 nM.

Question: For X5 scFv, which IC50, single cycle infectivity assay against HIV-HXB2 [8] is on record?
Answer: Its IC50, single cycle infectivity assay against HIV-HXB2 is 30 nM.
